{"source": "patent US20240425867A1", "about": "“NUCLEIC ACID-BASED ASSEMBLY AND USES THEREOF” (Rheinische Friedrich-Wilhelms-Universität Bonn, priority 2016, published 2024)", "key": {"[1]": {"experiment": "Critical micelle concentration via FRET (6-Fam/Atto647N-labeled motif 3)", "type": "physicochemical", "conditions": "room temperature", "method": "The critical micelle concentration (CMC) value of the trCLN3-L4 aggregates was determined by intermolecular Förster resonance energy transfer (FRET) experiments using a FRET pair of 6-Fam and Atto647N both attached to the 5′-end of the trCLN3-L4 motif 3. The FRET labels were attached at the 5′-end in immediate proximity to the lipid-modifications to ensure that intermolecular FRET effects report the formation of micellar nanoconstructs at a concentration above the critical micelle concentration.\nIn the FRET experiment, a series of nanoconstructs was self-assembled by mixing 6-Fam- and Atto647N-labeled motif 3 in 1:1 ratios in a concentration range between 0.035-15 μM (Table 2). […] The mixtures were transferred into a 384-well plate and the FRET effect was monitored at room temperature by using an excitation wave length of λex=480 nm and an emission wavelength of λem=669 nm using an EnSpire® Multimode Plate Reader (PerkinElmer).\nThe intensity signals were collected for both FRET channels at λem=669 nm for the acceptor channel and that of donor channel at λem=520 nm. […] The CMC value was determined from the intersection of the lower horizontal asymptote of the sigmoidal curve with the tangent at the inflection point corresponding to the minimum trCLN3-L4 concentration required for formation of stable micelles in aqueous medium. […]"}, "[2]": {"experiment": "Serum stability in PBS-buffered fetal calf serum (PAGE of 32P-labeled aptamer)", "type": "in vitro ADME", "conditions": "10% PBS-buffered FCS, 37° C., 0 to 72 h", "method": "Serum stabilities of trCLN3, its two point mutant non-binding variant trCLN3.mut and their corresponding lipid-functionalized derivatives trCLN3-L4 and trCLN3.mut-L4 were investigated in fetal calf serum (FCS) and human blood serum. For this purpose, the aptamer motifs were labeled at their 5′-end with ^32P to form radiolabeled oligonucleotides. The degradation tests of all the aptamer motifs were performed for 60-72 h at 37°° C. 6 pmol (12 μl of 0.5 μM) of the radio-labeled aptamer (5′-end-labeled with γ-^32P) was incubated in a volume of 300 μl freshly thawed PBS-buffered FCS or human blood serum (270 μl serum+30 μl 10×PBS). For each measurement, 10 μl of the samples were removed, mixed with 90 μl of gel loading buffer (80% formamide+5 mM EDTA+0.01% SDS) and subsequently stored at −20° C. Aliquots of samples were taken after indicated time intervals of 0, 0.3, 1.5, 3, 6, 24, 48, 60 and 72h respectively. The serum stability of the aptamer in FCS or in HBS at different time intervals were analyzed on a denaturing PAGE by loading 10 μl of each sample onto a 10% TAE-Urea gel and running the gels for 90 minutes at 350 V. Gels were wrapped in clingfilm and exposed to a phosphorimager screen in a closed cassette over a period of 12 h and finally the residual intact aptamer bands were analyzed by scanning the screen in a phosphorimage-scanner (FujiFilm FLA 3000). Intensities of the residual intact aptamer bands were calculated applying AIDA image analyzer software program. Serums half-lives of the selected aptamers were determined by using a half-life curve-fitting data analysis program (GraphPad Prism)."}, "cMet": {"molecular_target": "T1, cMet (Homo sapiens, UniProt P08581)", "T1 construct": "cMet-Fc, which represents the ectodomain of cMet fused to the Fc domain of human IgG1 was purchased from R&D Systems; purchased R&D Systems", "T1 sequence (P08581 25-932 limits assumed)": "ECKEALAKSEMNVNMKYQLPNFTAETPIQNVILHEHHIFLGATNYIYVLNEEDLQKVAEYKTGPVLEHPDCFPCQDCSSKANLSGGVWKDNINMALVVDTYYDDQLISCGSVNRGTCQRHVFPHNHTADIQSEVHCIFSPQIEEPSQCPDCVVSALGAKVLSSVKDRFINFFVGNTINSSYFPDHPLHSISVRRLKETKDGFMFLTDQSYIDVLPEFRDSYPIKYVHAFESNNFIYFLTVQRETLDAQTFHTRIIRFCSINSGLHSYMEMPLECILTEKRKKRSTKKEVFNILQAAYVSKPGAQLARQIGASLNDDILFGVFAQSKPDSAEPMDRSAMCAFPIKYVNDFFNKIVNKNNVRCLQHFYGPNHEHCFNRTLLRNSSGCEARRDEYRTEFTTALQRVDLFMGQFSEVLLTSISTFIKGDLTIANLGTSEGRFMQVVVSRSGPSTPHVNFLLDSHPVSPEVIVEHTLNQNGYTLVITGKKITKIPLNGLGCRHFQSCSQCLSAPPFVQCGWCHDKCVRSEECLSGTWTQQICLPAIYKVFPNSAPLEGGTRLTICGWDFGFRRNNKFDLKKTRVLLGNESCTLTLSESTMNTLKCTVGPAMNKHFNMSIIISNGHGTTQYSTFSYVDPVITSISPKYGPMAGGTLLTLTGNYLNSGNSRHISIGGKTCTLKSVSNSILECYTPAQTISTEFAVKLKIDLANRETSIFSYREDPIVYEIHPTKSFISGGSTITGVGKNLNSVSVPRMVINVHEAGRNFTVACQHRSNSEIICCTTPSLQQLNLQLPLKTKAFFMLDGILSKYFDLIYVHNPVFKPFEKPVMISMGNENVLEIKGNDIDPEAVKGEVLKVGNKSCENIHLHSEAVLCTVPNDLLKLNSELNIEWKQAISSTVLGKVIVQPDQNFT", "experiment": "Competitive filter-binding assay against γ-32P-labeled trCLN3", "conditions": "competition with γ-32P-trCLN3, cMet ~50 nM, competitor 1 μM-25 pM, 37° C.", "method": "To test the effect of lipid-modification on trCLN3 binding properties, we determined IC50 values for each trCLN3 derivative by a competitive filter retention assay in which varying concentrations of unlabeled 5′-(1-dodecynyl)-functionalized trCLN3 aptamers competed with constant amounts of γ-^32P-labeled trCLN3 in binding to cMet. Two control experiments were also performed using unlabeled trCLN3 and its two point mutant variant trCLN3.mut as competitors.\nFirst, the trCLN3 motif was 5′-end-labeled with γ-^32P ATP using T4 polynucleotide kinase. An aliquot of 20 μL solution containing 50 pmol trCLN3. 6.7 pmol γ-^32P ATP and 20 U T4 polynucleotide kinase in 1× polynucleotide kinase buffer (New England Biolabs) was incubated at 37° C. for 45 min. followed by removal of unreacted γ-^32P ATP using an Illustra G-25 microspin column (GE Healthcare. München, Germany). The purity of the radiolabeled aptamer was confirmed using a 10% PAGE-gel.\n0.25 mg/ml BSA. 2 mM MgCl2 in 1×PBS, pH 7.4. […] Residual radioactivity due to cMet bound labeled aptamers was quantified using Fujifilm Fla-3000 PhosphorImager and AIDA software. The curves were fitted with GraphPadPrism 3.02 plotting non-linear regression curve and the IC50 values have been calculated assuming a competition for single binding site."}}, "note": "Several values for one entry are separate records, joined by “and”; a condition that tells them apart may be missing. Equal entries are not always repeated."}
{"substance": "trCLN3-L4: trCLN3 aptamer with four C12-lipid-modified dU residues at the 5′-end; self-assembles into micellar nanoconstructs (TGGATGGTAGCTCGGTCGGGGTGGGTGGGTTGGCAAGTCT; four 5' C12-lipid-modified dU residues, chemistry not fully specified)", "values": [{"measurement": "critical micelle concentration (CMC)", "setting": "[1]; FRET, aqueous medium", "value": "300 nM and ~0.005 mg/ml"}, {"measurement": "CMC values", "setting": "[1]; both methods (FRET and pyrene fluorescence)", "value": "300 to 350", "unit": "nM"}, {"measurement": "serum half-life (t1/2)", "setting": "[2]", "value": "no significant degradation even up to 72 h"}, {"measurement": "IC50", "setting": "cMet", "value": 43, "unit": "nM"}]}
